Experimental data reported in PMC7614001.

T1: ALK2 ECD (Homo sapiens), Q04771
T1 chain: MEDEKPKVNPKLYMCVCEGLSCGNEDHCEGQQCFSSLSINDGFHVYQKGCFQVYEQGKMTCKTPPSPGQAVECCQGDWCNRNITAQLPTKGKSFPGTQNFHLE

T2: ALK3 ECD (Homo sapiens), P36894
T2 chain: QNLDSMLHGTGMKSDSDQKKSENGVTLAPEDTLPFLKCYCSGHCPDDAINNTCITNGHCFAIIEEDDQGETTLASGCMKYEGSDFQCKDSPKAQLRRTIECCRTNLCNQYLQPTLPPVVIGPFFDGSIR


Experiments:
[1] = target: T1, ALK2 ECD (Homo sapiens), Q04771; test: BLI; conditions: remark: other sources report otherwise
[2] = target: T2, ALK3 ECD (Homo sapiens), P36894; test: BLI; conditions: remark: other sources report otherwise

| Binder | Kd [1] [nM] | Kd [2] [nM] |
| --- | --- | --- |
| BMP-9, Q9UK05 (protein) SAGAGSHCQKTSLRVNFEDIGWDSWIIAPKEYEAYECKGGCFFPLADDVTPTKHAIVQTLVHLKFPTKVGKACCVPTKLSPISVLYKDDMGVPTLKYHYEGMSVAECGCR | 133 | – |
| BMP-7, P18075 (protein) STGSKQRSQNRSKTPKNQEALRMANVAENSSSDQRQACKKHELYVSFRDLGWQDWIIAPEGYAAYYCEGECAFPLNSYMNATNHAIVQTLVHFINPETVPKPCCAPTQLNAISVLYFDDSSNVILKKYRNMVVRACGCH | 18.4 | 19 |
